Data as given in patent US20110008841A1.

Biological target: chimera L
Assay: Bio-Plex titration on bead-captured chimera; cell bold and boxed = binding lost

EC50 cell marked as binding lost although the number is below wild type: 6 pM
B1: AMH26/AML26 (antibody, IgG2, V domains shown)
VH: QVQLVESGGGLVKPGGSLRLSCAASGFTFSDYYMSWIRQAPGKGLEWVSYISSSGSTIYYADSVKGRFTISRDNAKNSLYLQMNSLRAEDTAVYYCARDRTYYFGSGSYEGMDVWGQGTTVTVSS
VL: EILMTQSPATLSVSPGERATLSCRASQSVYSNLAWYQQKPGQAPRLLISGASTRATGIPARFSGSGSGTEFTLTISSLQSEDFAVYYCQQYYNWPWTFGQGTKVEIK
